Measured values as given in patent US10076576B2, “Minimally toxic prodrugs” (priority 2012, dated 2018).

How the values were obtained:
[1] = Stability in citrated human plasma; details: 5 hours incubation at 37° C. in citrated human plasma (pH7), 50 μM
Description: The drug conjugates (50 μM) were mixed with human plasma and incubated for 5 hours at 37° C. in a water bath. […] Supernatant was collected.

[2] = system: LS-174T tumor cell secreted peptidases; assay: Reactivation assay in LS174T tumor cell conditioned medium; type: biochemical, human; details: 5 h at 37° C.
Description: Sub-confluent cultures of LS-174T tumor cells were washed twice with a saline phosphate buffer solution, and fresh culture medium (DMEM-F12 without phenol red) containing 0.02% bovine serum albumin is added (100 μl/cm^2). After 24 hours incubation, the conditioned medium is collected, centrifuged for 10 minutes at 300 g, buffered with 1 M Tris-HCl, pH 7.4 (1 volume of buffer+19 volumes of medium) and concentrated 20 times by […] (cutoff threshold of 10 kDa).
Drug compounds (50 μM) were incubated for 0, 1, 3 or 5 hours at 37° C. in the presence of freshly prepared LS174T tumor cell conditioned medium. Fifty μL of sample were collected at each time point and processed as described above for human plasma.

[3] = In vitro cytotoxicity on Cor.At cardiomyocytes (neutral red uptake); type: cell-based, mouse; details: mouse, 20 μg/ml
Description: FIG. 5. In vitro cellular toxicity of PhAc-ALGP-Dox and Doxorubicin on Cor.At® cells (mouse embryonic stem cell derived cardiomyocytes). As non-specific control, the test was also performed on inactivated mouse embryonic fibroblasts (MEF). Cells were cultured for 48 h in the presence of drugs and a neutral red uptake test was performed to determine cell viability. Results represent the cytotoxicity curves. The IC50 values were calculated from the cytotoxicity curves using the Prism GraphPad software 5.0.
The in vitro cardiotoxicity test was carried out in a relevant and predictive in vitro model for cardiac safety screening in early lead optimization using mouse embryonic stem cell derived cardiomyocytes (Cor.At®, Axiogenesis (Germany)). Cor.At® cardiomyocytes provide a standardized, homogenous and reproducible cell system for the in vitro classification of a compound's cardio-cytotoxic potential. After incubation with test compounds, the neutral red uptake test was used to determine effects which directly affect the viability and integrity of cardiac cells when compared to a non-specific reference cell type, e.g. mouse fibroblasts (MEF).

[4] = system: LoVo colon carcinoma xenografts; assay: Activation at the tumor site after single iv bolus, LoVo xenograft; type: in vivo, NMRI nude mice; details: 24 hours after single iv injection, 15-620 μmol/kg
Description: FIG. 6. PhAc-ALGP-Dox was administered at increasing concentrations (15, 35, 50, 100, 200, 300, 460, 620 μmol/kg) by intravenous injection to NMRI nude mice bearing LoVo colon carcinoma xenografts (3 mice per group). After 24 hours, mice were sacrificed and tumors were collected. Doxorubicin tumor concentration was determined after extraction by HPLC analysis. Results represent the average Doxorubicin tumor concentration (pmol/mg protein)±SD.
Drugs or controls were administered four weeks after subcutaneous implantation of the xenograft. […] The PhAc-ALGP-Dox conjugate was dissolved in saline at increasing doses (1.5, 3.5, 5, 10, 20, 30, 46, and 62 mM). […] Twenty-four hours after injection, mice were sacrificed by cervical dislocation and tumors were collected, rinsed in phosphate buffer saline and homogenized. An extraction of drugs from tumor homogenates was performed with acetonitrile and Doxorubicin present in tumors was quantified by HPLC analysis.

[5] = Stability in citrated human blood; details: 5 hours incubation at 37° C. in citrated human blood, 50 μM

With `COc1cccc2c1C(=O)c1c(O)c3c(c(O)c1C2=O)CC(O)(C(=O)CO)CC3OC1CC(NC(=O)C2CCCN2C(=O)CNC(=O)C(CC(C)C)NC(=O)C(C)NC(=O)CP(=O)(O)O)C(O)C(C)O1` (stereo not shown) [PhAc-ALGP-Dox, PhAc-ALGP-doxorubicin] the “% metabolites released: Dox” value [1] was 2%, the “% metabolites released: GP-dox” value [1] was 0% and the “% metabolites released: P-Dox” value [1] was 0%. For the same molecule, the total % metabolites [1] was 2%, the “% Metabolites released after 5 h (LS174T CM20xcc)” value ([2]; 50 μM compound) was 81 ± 31% and the “% Dox detected after 5 h (LS174T conditioned medium)” value ([2]; metabolite Dox) was 24%. For the same molecule, the “% GP-Dox detected after 5 h (LS174T conditioned medium)” value ([2]; metabolite GP-Dox) was 56%, the viability at 48 h, 20 µg/mL [3] was 37% and the “injected dose at which Dox tumor concentration reaches a plateau” value [4] was 200 µmol/kg. The “% metabolites released: Dox” value [5] was 6%, the “% metabolites released: GP-dox” value [5] was 3% and the “% metabolites released: P-Dox” value [5] was 0%. The total % metabolites [5] was 9%.
